Results from patent US20070264678A1.

Legend:
[1] = target: PTK labeled tracer F-ADE(pY)LIPQQS; assay: binding curves as in Example 2 (FP), antibody at several labeling ratios
[2] = target: PTK labeled tracer F-ADE(pY)LIPQQS; assay: fluorescence polarization, direct binding curve: labeled antibody 10 nM to 9.8 pM against 1 nM tracer

Substance: Anti p-Tyr antibody (anti-pY20) labeled with CS124-DTPA-Phe-NCS*Tb
- fold variation of affinity for the tracer upon labeling [1]: < 2 fold

Substance: Tb-chelate labeled PY72 (anti-phosphotyrosine) IgG antibody
- EC50 [2]: 1 nM
